Measured values published in article PMC1971552, “A chelating derivative of alpha-melanocyte stimulating hormone as a potential imaging agent for malignant melanoma” (British Journal of Cancer, 1990).

Test system: DBA/2 mice bearing Cloudman S91 melanomas
Conditions: mouse, in vivo
Excerpt: Br. J. Cancer (1990), 62, 919-922 C) Macmillan Press Ltd., 1990 A chelating derivative of oa-melanocyte stimulating hormone as a potential imaging agent for malignant melanoma D.R. Bard, C.G. Knight & D.P. Page-Thomas Strangeways Research Laboratory, Worts' Causeway, Cambridge CB] 4RN, UK Summary A chelating derivative of a-melanocyte stimulating hormone (MSH) has been synthesised, in which two molecules of the hormone are cross-linked by diethylenetriamine pentaacetic acid (DTPA). […] When DBA/2 mice bearing the same tumour were injected with bisMSH-DTPA labelled with the 'y-emitting isotope indium-1Il ("'In), the radioactivity became rapidly associated with the melanoma tissue. […] Uptake of radioactivity by the tumours was inhibited by a 200-fold molar excess of MSH, whereas uptake by liver, kidney, spleen, lung, brain, eye and skin was unaffected. We conclude that bisMSH-DTPA may offer an alternative to antibody targeting in the imaging of malignant melanoma. Malignant melanoma is characterised by a tendency to meta- stasise early and to be resistant to most conventional therapies. The initial surgical management of the disease would benefit if it were possible to discover whether metas- tasis had taken place and to which locations. […]

In the case of CSCC[C@H](NC(=O)[C@H](CO)NC(=O)[C@H](Cc1ccc(O)cc1)NC(=O)[C@H](CO)NC(=O)CN(CCN(CCN(CC(=O)O)CC(=O)N[C@@H](CO)C(=O)N[C@@H](Cc1ccc(O)cc1)C(=O)N[C@@H](CO)C(=O)N[C@@H](CCSC)C(=O)N[C@@H](CCC(=O)O)C(=O)N[C@@H](Cc1c[nH]cn1)C(=O)N[C@@H](Cc1ccccc1)C(=O)N[C@@H](CCCNC(=N)N)C(=O)N[C@@H](Cc1c[nH]c2ccccc12)C(=O)NCC(=O)N[C@@H](CCCCN)C(=O)N1CCC[C@H]1C(=O)N[C@H](C(N)=O)C(C)C)CC(=O)O)CC(=O)O)C(=O)N[C@@H](CCC(=O)O)C(=O)N[C@@H](Cc1c[nH]cn1)C(=O)N[C@@H](Cc1ccccc1)C(=O)N[C@@H](CCCNC(=N)N)C(=O)N[C@@H](Cc1c[nH]c2ccccc12)C(=O)NCC(=O)N[C@@H](CCCCN)C(=O)N1CCC[C@H]1C(=O)N[C@H](C(N)=O)C(C)C [bisMSH-DTPA], the “crossing of the blood-brain barrier” value is reported as “unable to cross the blood-brain barrier” and the “maximum level in the blood following injection” value (ip) is reported as “about 0.8 µg ml-1”.
